Experimental data published in the supplement of paper PMC10724198.
± gives the standard deviation of the averaged measurements.

tested on: Saccharomyces cerevisiae; experiment: protein stability index of tFT-peptide fusion (C-terminal peptide) (PSI (0-1 scale)); higher = more stable (slower turnover); conditions: genetic background: wild type; temperature: 30 C
Protocol: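 Multiplexed protein stability (MPS) profiling in S. cerevisiae. Random 12-aa peptides (tFT-X12 library) are fused to the C-terminus of a sfGFP-mCherry tandem fluorescent timer, after mCherry and a GGGS linker. Cells are FACS-sorted into 8 mCherry/sfGFP bins and deep-sequenced. The protein stability index (PSI) is the read-weighted bin average, scaled from 0 (unstable) to 1 (stable). Only peptides with >10 reads are reported; cells were grown at 30 °C in SC-His with glucose.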
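Further: PSI is a weighted mean of sequencing reads over stability bins, variants kept only with over 10 reads, mCherry proximal and sfGFP distal, peptide attached via GGGS linker.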

| Sequence | protein stability index |
| --- | --- |
| IRIIETPDSFYK | 0.795 ± 0.058 |
| LPAILALVPRYP | 0.674 ± 0.022 |
| KNNKEKQKKKKR | 0.663 ± 0.084 |
| KHTGFAGGMTWT | 0.707 ± 0.016 |
| PPSPLSTLPSPH | 0.679 ± 0.045 |
| SPPLLPPPSLPP | 0.628 ± 0.0056 |
| LGEAGGWSLGFG | 0.73 ± 0.018 |
| FLIPPPFALPSL | 0.717 ± 0.08 |
| PLPTLPFPCSPS | 0.706 ± 0.016 |
| EKSGKDKRKNEI | 0.723 ± 0.062 |
| KKIKKRNIKKKT | 0.67 ± 0.032 |
| KKICLEWMLLQS | 0.7011 ± 0.0067 |
| VLCVDQVEVSFV | 0.678 ± 0.03 |
| PPPPAPYPNYYS | 0.542 ± 0.0062 |
| EYIWLSLGSVYI | 0.624 ± 0.05 |
| SPSPPPTPGSPP | 0.718 ± 0.15 |
| GAENPRRLRART | 0.691 ± 0.0079 |
| FFFLPSPTFLPP | 0.764 ± 0.046 |
| AGAEHRERVGQS | 0.896 ± 0.056 |
| PRSSSRAGRTGT | 0.712 ± 0.031 |
| VRCLGAVEDCLS | 0.657 ± 0.013 |
| PPLPPLSPAPPR | 0.681 ± 0.0073 |
| VGCSSHAFGSSV | 0.686 ± 0.053 |
| VGWFELWGVSSG | 0.76 ± 0.052 |
| KGRNYVGRIRNN | 0.509 ± 0.024 |

| Sequence | protein stability index |
| --- | --- |
| EYGQTDENKMRM | 0.687 ± 0.096 |
| NIKKKKKETKNN | 0.676 ± 0.024 |
| LPPLLPSLSHAR | 0.6459 ± 0.003 |
| PSPPPPPPHPAP | 0.694 ± 0.035 |
| PPSRPLPALPFP | 0.676 ± 0.097 |
| PPLPPPHLAFLH | 0.685 ± 0.035 |
| KSGEHSCCRSAD | 0.602 ± 0.038 |
| PPPPPPPPFSHS | 0.712 ± 0.022 |
| TYLGISNLHPAI | 0.709 ± 0.031 |
| FYRPGNVLDGVF | 0.705 ± 0.075 |
| KNTRLKKEKVSR | 0.829 ± 0.23 |
| SKKRKKNNAKTK | 0.713 ± 0.01 |
| AAPHDVARPTTR | 0.689 ± 0.015 |
| SGGGELGATSGG | 0.691 ± 0.031 |
| LLRPPAPPPLPT | 0.642 ± 0.17 |
| LSVPPFSFTLSL | 0.807 ± 0.25 |
| YTDVWLPARGSG | 0.689 ± 0.056 |
| KKKKKRGKTKKK | 0.734 ± 0.055 |
| GVSAGLRGGGGA | 0.651 ± 0.022 |
| LLANYQRPSPLN | 0.705 ± 0.063 |
| VRGSLFGICSAL | 0.705 ± 0.06 |
| LLSPLFCYSSRS | 0.6457 ± 0.0013 |
| FLLRFSPASRAV | 0.691 ± 0.019 |
| VLLAAFLLPGLR | 0.634 ± 0.033 |
| SLALSAGFSIYL | 0.6693 ± 0.0062 |

| Sequence | protein stability index |
| --- | --- |
| LPPRPSPPRRPP | 0.666 ± 0.016 |
| VGGVGGLWVGAV | 0.7143 ± 0.0018 |
| PPPSRPPQLHPA | 0.605 ± 0.021 |
| KKLELLNRDRKV | 0.641 ± 0.042 |
| GLCRGHMSTMVD | 0.641 ± 0.064 |
| RFWFWWVVRDGS | 0.617 ± 0.08 |
| VMVTMGNMDSEA | 0.635 ± 0.031 |
| SVVVIGSSYASG | 0.5899 ± 0.0023 |
| DVVDGCGGRYGW | 0.687 ± 0.029 |
| TGLMAPEGGGQA | 0.719 ± 0.076 |
| FGSPVGSAGSCF | 0.647 ± 0.095 |
| PPASLPPPTAFN | 0.764 ± 0.049 |
| PRLQLHSDPNCS | 0.733 ± 0.087 |
| PVRLGAGGGCRP | 0.693 ± 0.02 |
| CRGPRASRRRGR | 0.629 ± 0.04 |
| SWYAGGRRWIVV | 0.608 ± 0.022 |
| AGCGGGVTASGA | 0.688 ± 0.055 |
| ALGRRGPEDWSG | 0.707 ± 0.031 |
| GRGLGGWARGWW | 0.69008 ± 0.00035 |
| LEAINRKGIWQE | 0.639 ± 0.083 |
| LVYLASGMYRFV | 0.607 ± 0.02 |
| GLDEVKVVSKKK | 0.689 ± 0.051 |
| PAPLFFCAPFFF | 0.715 ± 0.034 |
| VVSAIISGLSIK | 0.733 ± 0.0088 |
| RSGLARPSPLTR | 0.67445 ± 0.00024 |

| Sequence | protein stability index |
| --- | --- |
| SSSTPGRATRVS | 0.652 ± 0.034 |
| GVWQGVGVRGWG | 0.83 ± 0.096 |
| PLYSKHPTRFFP | 0.714 ± 0.011 |
| SRLYGHDLRCRL | 0.777 ± 0.091 |
| PPTPPPNPPSRY | 0.715 ± 0.021 |
| PSPPLPPPPSPY | 0.72 ± 0.1 |
| PPPPPPPSPPFS | 0.783 ± 0.031 |
| WCLRVRASGRGG | 0.786 ± 0.3 |
| VLRCVLTYGKPS | 0.673 ± 0.031 |
| VIFCVGRFSGGS | 0.645 ± 0.085 |
| GPPPPPPLPQLW | 0.77 ± 0.037 |
| GMIRDKEVVGGG | 0.651 ± 0.11 |
| LKLLIPPSFSLI | 0.611 ± 0.027 |
| ASAWLGLCGWVL | 0.674 ± 0.018 |
| FVVLALKESFSV | 0.605 ± 0.057 |
| KKEGEREQGVRW | 0.703 ± 0.037 |
| LPHLFLSVPSSP | 0.665 ± 0.038 |
| YSCLGFELWGKG | 0.632 ± 0.067 |
| RTRKARTHGRAQ | 0.679 ± 0.0092 |
| VRAWIGDVENGV | 0.574 ± 0.058 |
| ELNGLSLVRKKK | 0.662 ± 0.021 |
| GYADDEEEYVTL | 0.737 ± 0.023 |
| SLYYPRLVSSSL | 0.732 ± 0.11 |
| LCPGYVDSRCRG | 0.6959 ± 0.0034 |
| WLPPPPYSPFSL | 0.724 ± 0.059 |

| Sequence | protein stability index |
| --- | --- |
| IRIKKGMETGKL | 0.69 ± 0.0084 |
| RSFRCWVQGYCG | 0.654 ± 0.044 |
| PRSRPTCYSRPG | 0.702 ± 0.04 |
| PLPPLAPPHRSP | 0.682 ± 0.091 |
| KIIKIKKQGENK | 0.597 ± 0.016 |
| SNIEKKKTIKRK | 0.6929 ± 0.0069 |
| SPSLVVRVSFEF | 0.595 ± 0.025 |
| GKIKKTTDKILI | 0.639 ± 0.11 |
| PNVSPTPPYSSP | 0.691 ± 0.023 |
| WGTGGRLGVGHV | 0.697 ± 0.056 |
| THRNEKQGTVTY | 0.651 ± 0.016 |
| RAHWGEFGYSLF | 0.716 ± 0.018 |
| FPPLCSSSPPLP | 0.7131 ± 0.0069 |
| KKLKKTTNQTKK | 0.616 ± 0.022 |
| TGRGVFCMSIHM | 0.643 ± 0.045 |
| NGSAYEGRDYAN | 0.626 ± 0.02 |
| GLGMWSVRCAGW | 0.649 ± 0.0067 |
| VSSCSGVLLCVP | 0.544 ± 0.016 |
| SHQTTKQKKKNL | 0.624 ± 0.013 |
| PPRSLPPPTSPL | 0.731 ± 0.011 |
| IGGAMLSPLKVR | 0.55 ± 0.021 |
| RRDELINVVKRT | 0.717 ± 0.072 |
| PSPTIPSPPPPP | 0.615 ± 0.011 |
| PSNDNTMIPILE | 0.656 ± 0.04 |
| SPHRQIRKRFEK | 0.714 ± 0.026 |

| Sequence | protein stability index |
| --- | --- |
| PAVSRPPLPSVH | 0.7 ± 0.089 |
| IFFRARRLEAHT | 0.608 ± 0.019 |
| GALVGWAMALGW | 0.679 ± 0.033 |
| GVRIGYCIVRDV | 0.647 ± 0.022 |
| SRFSPSLPPFLP | 0.661 ± 0.055 |
| RDGGSTDGGKRR | 0.697 ± 0.024 |
| STVSLASPARSP | 0.683 ± 0.048 |
| VQGIKFRNSVEV | 0.665 ± 0.044 |
| VPRTGSLHARLP | 0.715 ± 0.03 |
| SVWFSFVKVRGG | 0.612 ± 0.0037 |
| MCVSSSAGVRQE | 0.638 ± 0.054 |
| FRVSVRTVSSLR | 0.654 ± 0.037 |
| PSPYFHLFGTQS | 0.77 ± 0.027 |
| SPPLQFLPYPFF | 0.685 ± 0.09 |
| VSCLFFFVSIPF | 0.5176 ± 0.0035 |
| PHLSRSVSKVLR | 0.659 ± 0.066 |
| SRRLSLSSLAFP | 0.723 ± 0.0074 |
| SPTPRLGGPPPI | 0.723 ± 0.015 |
| IPLLEALLQLAA | 0.562 ± 0.014 |
| PPPSPPDCLPLP | 0.649 ± 0.086 |
| LNDEKIKGKTTK | 0.732 ± 0.012 |
| RGEPPSAKEIAR | 0.727 ± 0.045 |
| CSSSLLDSPPAL | 0.703 ± 0.048 |
| NNKRNGRIKRKI | 0.738 ± 0.02 |
| RGPGMVRAFAEA | 0.679 ± 0.011 |

| Sequence | protein stability index |
| --- | --- |
| LAGNNVSFMRVR | 0.714 ± 0.059 |
| QLILVGYCMLSV | 0.5612 ± 0.0017 |
| WVVGGVRGVWGA | 0.729 ± 0.011 |
| AFALFVGKVLRC | 0.566 ± 0.021 |
| DRPSTNPISNVG | 0.699 ± 0.015 |
| PLCVICRRWGAS | 0.646 ± 0.046 |
| GSHRSTWGLVPL | 0.696 ± 0.067 |
| KREEGKTKKKKQ | 0.666 ± 0.023 |
| PPRVFGFFPFPP | 0.774 ± 0.079 |
| PFLLVSHESSLE | 0.718 ± 0.0077 |
| WSGGWAGGMLNE | 0.641 ± 0.027 |
| HLWAPRQNTIRY | 0.649 ± 0.091 |
| PLPPLTPASPHP | 0.72 ± 0.035 |
| SAGLLFFSFPPL | 0.7873 ± 0.0067 |
| RPPCLRPPPPPL | 0.727 ± 0.012 |
| CVQGDGLSFYVL | 0.737 ± 0.07 |
| SGGISGCPPPVF | 0.689 ± 0.036 |
| PGPPYPPPPLHP | 0.716 ± 0.008 |
| WVGKCLCRGLCD | 0.668 ± 0.0096 |
| KNNKNQKELDTK | 0.677 ± 0.065 |
| CDYAWSSSASLG | 0.56 ± 0.017 |
| ELRFRGITRTTV | 0.725 ± 0.052 |
| KMRKIRSKRLKW | 0.681 ± 0.028 |
| AETALGVCGVLC | 0.785 ± 0.11 |
| WWAERCLGGGRG | 0.744 ± 0.018 |

| Sequence | protein stability index |
| --- | --- |
| KLTKGKIQLHIK | 0.593 ± 0.017 |
| MGHLFIPSQSQS | 0.715 ± 0.048 |
| KPCGRAEERRSG | 0.674 ± 0.035 |
| EGDRLVKEVGEE | 0.654 ± 0.12 |
| CFGFRVFGFVFF | 0.561 ± 0.075 |
| PSTVSPFRPPIT | 0.711 ± 0.039 |
| YLAYHVAAPGPV | 0.686 ± 0.015 |
| GSPMRKHVTLLP | 0.808 ± 0.12 |
| MVSSIESHIVLY | 0.66 ± 0.0078 |
| WATPRPCQMVPS | 0.567 ± 0.038 |
| PIFPFSFFLPLI | 0.605 ± 0.011 |
| PPLAPASPSPLP | 0.698 ± 0.023 |
| RGQTSLTGERNK | 0.701 ± 0.055 |
| TCRGRLCVCLFC | 0.505 ± 0.015 |
| PPTPPPPRSTPS | 0.766 ± 0.035 |
| RLFIALFPPFYL | 0.64 ± 0.05 |
| GWGGFQFECGWV | 0.651 ± 0.059 |
| EQLRLQSIECGE | 0.631 ± 0.0073 |
| VFFSCVRFCLWF | 0.562 ± 0.0082 |
| FSHLLPAESPYP | 0.654 ± 0.086 |
| RRCSCGFLCIDS | 0.672 ± 0.14 |
